The results in this text go back to patent publication US20050227220A1, “Compositions and Methods for Evaluating and Designing Nuclear Receptor Ligands that Modulate Co-Regulator Affinity” (priority 2002, published 2005).

No end group written: not given here. *: point of attachment. Biotin = O=C1N[C@H]2[C@H](CS[C@H]2CCCCC(=O)*)N1

Experiment [1] addresses T1, PPARδ LBD (Homo sapiens, UniProt Q03181).
T1 construct: made in house; host or cells: bacterial BL21-DE3, vector pRSETA
T1 sequence (Q03181 139-441): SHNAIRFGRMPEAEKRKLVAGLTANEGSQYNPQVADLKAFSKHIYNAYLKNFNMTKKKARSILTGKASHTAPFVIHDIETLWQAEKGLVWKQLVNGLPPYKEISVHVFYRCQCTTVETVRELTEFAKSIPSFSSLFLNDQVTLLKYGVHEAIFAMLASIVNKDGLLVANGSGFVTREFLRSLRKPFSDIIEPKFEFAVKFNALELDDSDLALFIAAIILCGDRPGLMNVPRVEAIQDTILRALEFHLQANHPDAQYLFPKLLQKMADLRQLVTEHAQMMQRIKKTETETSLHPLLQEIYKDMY
The experiment can be described thus: Fluorescence polarization assay for ligand modulation of nuclear receptor/cofactor peptide affinities. The format is biochemical. As to conditions: result in words. On the technique in general: In fluorescence polarisation assays a small probe gives low polarisation when free and higher when bound to something large.
Description: Such tests were performed quantitatively by measuring the effect of an excess of ligand on the binding affinity of the co-repressor peptide.
All experiments were conducted with buffer containing 10 mM HEPES, pH 7.4, containing 0.15 M NaCl, 3 mM EDTA, 0.005% polysorbate-20 and 5 mM DTT. Varied concentrations of receptor were incubated at room temperature with 10 nM of fluorescein-labeled NCOR ID-C or SMRT ID-C peptides. […] Binding isotherms were constructed and apparent KD values were determined by non-linear least squares fit of the data to an equation for a simple 1:1 interaction. […] Complex formation was monitored by fluorescence polarization as described in methods. […] All assays were performed in duplicate and affinities are the average of at least two independent experiments.

For experiment [2], the target named is T1, PPARδ LBD. The experiment can be described thus: FRET assay: ligand effect on CBP fragment / NCoR ID-C binding to PPAR LBD. It is filed as biochemical. The text has this: (§1) The experimentally determined α value is the ratio of cofactor affinities in the presence and absence of a saturating concentration of ligand. This analysis permits a direct comparison of the effects of compounds, independent of cofactor concentration and differences in coregulator affinity for the individual receptors. […] 98(9): p.
(§2) The effects of the coregulator environment on the apparent affinities and selectivities of various ligands were than examined. Experimentally determined pKs and the α values derived from the FRET assay were used to calculate the apparent affinity of the ligand for the receptor/cofactor complex (i.e. K/α).
(§3) FIG. 5 illustrates the effect of ligands on coactivator and corepressor binding to PPAR subtypes determined by FRET.

In experiment [3] the target is T2, PPARα LBD (Homo sapiens, UniProt Q07869).
T2 construct: made in house; host or cells: bacterial BL21-DE3, vector pRSETA
T2 sequence (Q07869 192-468): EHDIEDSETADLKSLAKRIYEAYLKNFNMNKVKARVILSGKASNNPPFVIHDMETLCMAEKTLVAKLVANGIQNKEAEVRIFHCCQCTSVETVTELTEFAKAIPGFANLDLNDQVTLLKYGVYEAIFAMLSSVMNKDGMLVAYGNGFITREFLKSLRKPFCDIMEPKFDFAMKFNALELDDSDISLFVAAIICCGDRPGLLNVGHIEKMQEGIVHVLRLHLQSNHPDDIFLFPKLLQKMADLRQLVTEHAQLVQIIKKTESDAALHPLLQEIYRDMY
The experiment is described as above. The format is biochemical. To be noted: 10 nM PPAR LBD, CBP (57-454).
From the text: as §1, §2, §3

Experiment [4] addresses T3, full length human PPARδ (Homo sapiens, UniProt Q03181).
T3 construct: expressed in transfected cells; host or cells: CV-1 cells, vector pVP16 (Clonetech)
The experiment can be described thus: Mammalian two-hybrid assay (CV-1 cells). It is filed as cell-based. As to conditions: VP16-PPARδ, GAL4-NCoR (2239-2300), result in words. An excerpt: (§4) Mammalian two-hybrid assays were used to examine the ability of the tyrosine-based class of PPAR ligands to promote association or dissociation of the co-activator CBP and the corepressor NCoR in the context of a cellular environment. The assays for the three PPAR subtypes used full length human PPARα, PPARγ2 or PPARδ fused to the activation domain of VP16 and previously identified interaction domains of CBP and NCoR fused to the DNA binding domain of GAL4.
(§5) Expression plasmids for the VP16-human PPAR constructs were prepared by inserting amplified cDNAs encoding full length PPARα, PPARγ2 and PPARδ fused to amino acids 410-490 of the VP16 viral activation domain, into the expression vector pVP16 (Clonetech). […] The reporter plasmid was (UAS)5-tk-SPAP, and the internal control plasmid for all transfections was β-galactosidase expression vector (pCH110, Amersham).
(§6) CV-1 cells were maintained in culture in DME high glucose medium supplemented with 10% FBS and 2 mM glutamine in a humidified incubator (5% CO2 in air) at 37° C. Cells were harvested 72 hours prior to experimental use and placed in phenol red free D-MEM/F-12 medium with 15 mM HEPES supplemented with 10% charcoal/dextran-treated FBS (HyClone, Logan, Utah). The cells were harvested and seeded at 2.0×10^4 cell per well in a 96-well plate the day prior to transfection. Cells were transfected for 16 hr using Lipofectamine (Life Technologies, Inc., Rockville, Md.) essentially according to the manufacturer's instructions. The total amount of DNA transfected into each well was 80 ng. Transfection mixtures contained 8 ng VP16-PPAR plasmid, 8 ng SPAP reporter, 25 ng of pCH110(β-galactosidase) control plasmid, 35 ng of pBluescript II KS+ (Clonetech) and 4 ng of either coactivator or corepressor plasmid. Transfection quantities for full length PPAR and cofactor plasmids were optimized to generate a signal that was half of the maximal activation. These conditions would allow for dissociation or association to be experimentally determined for each ligand evaluated. Stock solutions of drugs were prepated in DMSO and dilutions were made in phenol red-free D-MEM/F-12 with 15 mM HEPES supplemented with 10% charcoal stripped, delipidated, heat inactivated (62° C. for 35 min) bovine calf serum (Sigma, St. Louis, Mo.) such that the final concentration of DMSO was 0.1%. Transfection mixtures were aspirated and 100 μl, of medium containing drug was added to each well.

Experiment [5] concerns the target T4, full length human PPARα (Homo sapiens, UniProt Q07869).
T4 construct: expressed in transfected cells; host or cells: CV-1 cells, vector pVP16 (Clonetech)
T4 sequence (Q07869 1-468): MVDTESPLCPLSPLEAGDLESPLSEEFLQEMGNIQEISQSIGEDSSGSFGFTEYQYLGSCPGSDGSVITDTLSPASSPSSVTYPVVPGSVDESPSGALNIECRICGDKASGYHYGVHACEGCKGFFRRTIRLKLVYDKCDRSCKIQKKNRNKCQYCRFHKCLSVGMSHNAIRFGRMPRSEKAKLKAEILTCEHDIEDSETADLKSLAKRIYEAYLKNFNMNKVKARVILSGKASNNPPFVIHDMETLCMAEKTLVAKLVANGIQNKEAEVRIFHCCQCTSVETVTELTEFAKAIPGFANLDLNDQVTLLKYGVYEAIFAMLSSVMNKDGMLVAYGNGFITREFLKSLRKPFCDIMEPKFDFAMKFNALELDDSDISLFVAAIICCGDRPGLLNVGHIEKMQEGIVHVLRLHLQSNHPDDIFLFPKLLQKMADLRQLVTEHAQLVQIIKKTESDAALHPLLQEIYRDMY
The experiment can be described thus: Mammalian two-hybrid assay (CV-1 cells). It is filed as cell-based. As to conditions: VP16-PPARα, GAL4-NCoR (2239-2300), result in words.
From the text: as §4, §5, §6

Experiment [6] has as its target T5, PPARδ LBD / RXRα LBD (Homo sapiens, UniProt Q03181).
T5 sequence (Q03181 139-441): T1 sequence (Q03181 139-441)
T5 sequence (P19793 225-462 partner limits assumed): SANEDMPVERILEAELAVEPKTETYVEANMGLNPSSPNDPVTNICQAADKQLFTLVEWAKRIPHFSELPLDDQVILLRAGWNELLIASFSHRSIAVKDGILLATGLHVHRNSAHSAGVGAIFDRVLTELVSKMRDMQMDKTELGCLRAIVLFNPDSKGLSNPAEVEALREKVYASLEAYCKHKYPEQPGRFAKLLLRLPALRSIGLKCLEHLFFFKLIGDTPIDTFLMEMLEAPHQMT
The experiment can be described thus: FRET assay: ligand effect on RXRα LBD binding to PPAR LBD. As to conditions: 10 nM PPAR LBD, 4 concentrations of RXR.

The target in experiment [7] is T6, human PPARγ ligand binding domain (amino acids 206-477) (human, UniProt P37231-2 206-477).
T6 construct: range 206-477; placed at the N-terminus here; Biotinylated for FRET; also called PPARγ LBD
T6 sequence: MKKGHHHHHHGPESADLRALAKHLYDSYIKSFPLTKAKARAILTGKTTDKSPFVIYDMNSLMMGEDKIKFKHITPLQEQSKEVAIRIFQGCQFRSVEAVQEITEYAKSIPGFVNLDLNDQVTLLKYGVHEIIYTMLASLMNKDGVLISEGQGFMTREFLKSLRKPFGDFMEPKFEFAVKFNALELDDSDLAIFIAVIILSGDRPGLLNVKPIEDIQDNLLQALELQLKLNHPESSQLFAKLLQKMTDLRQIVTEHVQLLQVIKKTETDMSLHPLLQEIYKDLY
The experiment can be described thus: fluorescence polarization, apparent affinity, no ligand.

The target in experiment [8] is T7, human PPARδ ligand binding domain (amino acids 139-441) (human, UniProt Q03181 139-441, Biotinylated (site not stated) in the FRET assays; unlabelled in fluorescence polarization and SPR.).
T7 construct: placed at the N-terminus here; Biotinylated for FRET; also called PPARδ LBD
T7 sequence: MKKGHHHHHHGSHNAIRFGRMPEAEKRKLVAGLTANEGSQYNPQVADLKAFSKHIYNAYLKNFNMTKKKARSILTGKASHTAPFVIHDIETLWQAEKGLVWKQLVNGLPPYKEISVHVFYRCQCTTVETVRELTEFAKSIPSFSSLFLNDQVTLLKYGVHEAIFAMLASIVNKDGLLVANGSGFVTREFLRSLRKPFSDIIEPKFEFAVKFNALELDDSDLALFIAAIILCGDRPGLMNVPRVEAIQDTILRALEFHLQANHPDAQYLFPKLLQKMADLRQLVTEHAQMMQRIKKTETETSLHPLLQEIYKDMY
Described as above.

Experiment [9] deals with T6, human PPARγ ligand binding domain …. The experiment can be described thus: fluorescence polarization, apparent affinity, with GW1929.
Experiment [10] concerns the target T7, human PPARδ ligand binding domain …. The experiment is described as above.
The target of experiment [11] is T6, human PPARγ ligand binding domain …. The experiment can be described thus: fluorescence polarization, apparent affinity, with rosiglitazone.
Experiment [12] deals with T7, human PPARδ ligand binding domain …. Described as above.
Experiment [13] deals with T8, VP16-human PPARγ2 (full length) (human, UniProt P06492 410-490; P37231 1-505).
T8 construct: also called VP16 full length PPARγ
The experiment can be described thus: mammalian two-hybrid in CV-1 cells.

The target of experiment [14] is T9, VP16-human PPARα (full length) (human, UniProt P06492 410-490; Q07869 1-468).
T9 construct: also called VP16 full length PPARα
The experiment can be described thus: mammalian two-hybrid in CV-1 cells.

In experiment [15] the target is T10, VP16-human PPARδ (full length) (human, UniProt P06492 410-490; Q03181 1-441).
T10 construct: also called VP16 full length PPARδ
The experiment can be described thus: mammalian two-hybrid in CV-1 cells.

T3 sequence (Q03181 whole entry): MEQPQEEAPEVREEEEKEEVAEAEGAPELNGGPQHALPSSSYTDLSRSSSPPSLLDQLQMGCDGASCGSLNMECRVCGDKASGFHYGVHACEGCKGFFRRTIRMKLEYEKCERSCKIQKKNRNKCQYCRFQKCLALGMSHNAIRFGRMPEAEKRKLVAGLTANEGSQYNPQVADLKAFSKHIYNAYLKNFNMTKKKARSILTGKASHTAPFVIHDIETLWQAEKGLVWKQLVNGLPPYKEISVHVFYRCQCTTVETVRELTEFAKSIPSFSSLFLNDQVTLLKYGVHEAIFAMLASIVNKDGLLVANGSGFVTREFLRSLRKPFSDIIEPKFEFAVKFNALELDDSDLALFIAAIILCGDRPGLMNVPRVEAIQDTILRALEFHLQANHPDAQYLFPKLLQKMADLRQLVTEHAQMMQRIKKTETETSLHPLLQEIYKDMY

For the molecule `CN(CCOc1ccc(C[C@H](Nc2ccccc2C(=O)c2ccccc2)C(=O)O)cc1)c1ccccn1` [GW1929], the “effect on PPARδ interaction with the coactivator peptide (TRAP220)” value in experiment [1] is listed as “little or no effect”. In addition, in experiment [2] (10 nM PPAR LBD, CBP (57-454)), the “effect on apparent affinity of PPARδ for the co-activator fragment from CBP” value is given as “increased the apparent affinity”. Besides, the “effect on affinity of PPARδ for the co-repressor peptide” value in [2] (10 nM PPAR LBD, NCoR ID-C) was “greatest effect”. For the same molecule, the “log α (NCoR association with PPARδ)” value in experiment [2] (α = ratio of cofactor affinities in presence and absence of saturating ligand) worked out at 0.52. Further, in [3], the “effect on apparent affinity of PPARα for the co-activator fragment from CBP” value is reported as “increased the apparent affinity”. For the same molecule, the “effect on PPARδ interaction with NCoR” value in experiment [4] is listed as “slightly promote association”. Further, the “effect on PPARα interaction with NCoR” value in [5] is listed as “neither GW1929 nor GW7845 were able to promote association with NCoR”. Also, the “promotion of association of PPARδ with RXR” value in [6] was “most effective”.

B1: TRAP220 peptide (amino acids 575-599) (peptide)
peptide: Biotin-GHGEDFSKVSQNPILTSLLQITGNG
modifications: not fully specified; printed as biotin-GHGEDFSKVSQNPILTSLLQITGNG
notes: also called TRAP220 575-599
Take B1: the Kd in experiment [7] came to 3.9 µM; in experiment [8], 2.3 µM; in experiment [9], 0.79 µM; in experiment [10], 3.4 µM; in experiment [11], 1.5 µM; in [12], 1.8 µM.

B2: GAL4-NcoR (2012-2103) (other)
chain: MKLLSSIEQACDICRLKKLKCSKEKPKCAKCLKNNWECRYSPKTKRSPLTRAHLTEVESRLERLEQLFLLIFPREDLDMILKMDSLQDIKALLTGLFVQDNVNKDAVTDRLASVETDMPLTLRQHRISATSSSEESSNKGQRQLTVSGPLHHYRPQQESPSPQQQLPPSSQAEGMGQVPRTHRLITLADHICQIITQDFARNQVSSQTPQQPPTSTFQNSPSALVSTPVRTKTSNRYSP
notes: range 1-147;range 2012-2103; also called NCoR fragment (2012-2103) that contained NCoR ID-N
Regarding B2, the binding result in experiment [13], in experiment [14] and in [15] was “no binding” in each case.
